Columns and labels:
[1] = molecular target: T1, hCMV gH (HEK293T transfectant) (hCMV, UniProt P12824 24-743); test: cell-based or functional assay
[2] = molecular target: T1, hCMV gH (HEK293T transfectant); test: cell-based or functional assay; remark: listed apart in the source
[3] = molecular target: T2, hCMV gH + gL + UL128 + UL130 + UL131A (5-member complex; HEK293T co-transfectant) (hCMV, UniProt P12824 24-743; P16832 31-278; P16837 1-171; P16772 1-214); test: cell competition; competitor 4N10-biotin
T2 construct: whole, on cells; in the functional rows it stands for the complex on virions or transduced cells of the strain or isolate named in the readout; also called gH/gL/UL128-131A complex; pentameric complex

[4] = molecular target: T2, hCMV gH + gL + UL128 + UL130 + UL131A …; test: cell competition; competitor 4I22-biotin
[5] = molecular target: T2, hCMV gH + gL + UL128 + UL130 + UL131A …; test: cell competition; competitor 15D8-biotin
[6] = molecular target: T2, hCMV gH + gL + UL128 + UL130 + UL131A …; test: cell competition; competitor 2F4-biotin
[7] = molecular target: T3, hCMV UL130 + UL131A (HEK293T co-transfectant) (hCMV, UniProt P16772 1-214); test: cell-based or functional assay
T3 sequence (P16772 whole entry): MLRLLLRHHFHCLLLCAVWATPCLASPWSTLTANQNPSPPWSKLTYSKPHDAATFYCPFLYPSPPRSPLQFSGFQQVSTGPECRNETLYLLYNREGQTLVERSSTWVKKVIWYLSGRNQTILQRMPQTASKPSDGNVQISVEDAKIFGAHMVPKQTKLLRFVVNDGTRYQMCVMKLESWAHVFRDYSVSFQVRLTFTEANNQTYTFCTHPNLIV

[8] = molecular target: T2, hCMV gH + gL + UL128 + UL130 + UL131A …; test: cell competition; competitor 2C12-biotin
[9] = molecular target: T3, hCMV UL130 + UL131A (HEK293T …); test: cell-based or functional assay; remark: listed apart in the source
[10] = molecular target: T2, hCMV gH + gL + UL128 + UL130 + UL131A …; test: cell competition; competitor 5A2-biotin
[11] = molecular target: T2, hCMV gH + gL + UL128 + UL130 + UL131A …; test: cell competition; competitor 6G4-biotin
[12] = molecular target: T2, hCMV gH + gL + UL128 + UL130 + UL131A …; test: cell competition; competitor 8I21-biotin
[13] = molecular target: T2, hCMV gH + gL + UL128 + UL130 + UL131A …; test: cell competition; competitor 1F11-biotin
[14] = molecular target: T2, hCMV gH + gL + UL128 + UL130 + UL131A …; test: cell competition; competitor 10F7-biotin

| Binder | 50% neutralization VR1814, ARPE [1] [µg/mL] | 50% neutralization VR1814, MRC-9 [1] [µg/mL] | 90% neutralization VR1814, ARPE [2] [µg/mL] | 90% neutralization VR1814, MRC-9 [2] [µg/mL] | Inhibition of binding (%) [3] [%] | Inhibition of binding (%) [4] [%] | Inhibition of binding (%) [5] [%] | Inhibition of binding (%) [6] [%] | 50% neutralization VR1814, ARPE [7] [µg/mL] | 50% neutralization VR1814, MRC-9 [7] [µg/mL] | Inhibition of binding (%) [8] [%] | 90% neutralization VR1814, ARPE [9] [µg/mL] | 90% neutralization VR1814, MRC-9 [9] [µg/mL] | Inhibition of binding (%) [10] [%] | Inhibition of binding (%) [11] [%] | Inhibition of binding (%) [12] [%] | Inhibition of binding (%) [13] [%] | Inhibition of binding (%) [14] [%] |
| --- | --- | --- | --- | --- | --- | --- | --- | --- | --- | --- | --- | --- | --- | --- | --- | --- | --- | --- |
| 13H11 (antibody, V domains shown) VH: QVQLVQSGAEVKKPGASVKVSCKASGYTFTNYYIHWVRQAPGQGLEWMGIIHPSSGGTSYAQKFQGRVTMTRDTSTSTVSMDLSSLRSEDTAVYYCGRAFRILGLSDVFVNDWGQGTVVTVSS VL: DIQMTQSPSSLSASVGDRVTITCRASQGINNYLAWYQQKPGKVPKLLIYAASTLQSGVPSRFSGSGSGTAFTLTILSLQPEDVATYYCQKYNSAPFTFGPGTKVDIK | < 0.01 | ≤ 2 | 0.4 | 1.12 |  |  |  |  |  |  |  |  |  |  |  |  |  |  |
| 4N10 (antibody, V domains shown, human IgG; also called 4N10-biotin) VH: QVQLVQSGAEVKKPGSSVRVSCKASGGTFSSYVIIWVRQAPGQGLEWMGGVIPIFDTVNYAQKFQGRVTITADESTSTAYMELSSLKSEDTAVYYCARGILAYCGGDCYNTPYGMDVWGQGTTVTVSS VL: DIQMTQSPSILSASVGDRVTITCRASQSISSWLAWYQQKPGKAPKLLIYKASSLEIGVPSRISGSGSGTEFTLTISSLQPDDFATYYCQQYNSSWTFGQGTKVEIK |  |  |  |  | 100 | 0 | 0 | 0 | < 0.001 | ≤ 2 | 0 | 0.02 | > 10 | 100 | 0 | 90 | 0 | 0 |
| 10F7 (antibody, V domains shown, human IgG; also called 10F7-biotin) VH: EVQLVESGGGLVQPGRSLRLSCTASGFTFGDYAMSWFRQAPGKGLEWVGFIRSKAYGGTTEYAASVKGRFTISRDDSKSIAYLQMNSLKTEDTAVYYCTRASSLLWLLNPQPNFDYWGQGTLVTVSS VL: SYVLTQPPSVSVAPGQTARITCGGNNIGSNNVHWYQQKPGQAPVLVVYDDSDRPSGIPERFSGSNSGNTATLTISRVEAGDEADYYCQVWDSSSDHPVFGGGTKLTVL |  |  |  |  | 0 | 100 | 0 | 100 | < 0.01 | ≤ 2 | 0 | 0.002 | > 10 | 0 | 0 | 0 | 100 | 100 |
| 11B12 (antibody, V domains shown) VH: QMQLVQSGPQVKKPGTSVKVSCKASGFTFTSSAMQWVRQARGQRPEWIGWIVLGSGNTNYAQKFQERVTLTRDMSTATAYMELSSLRSEDTAVYYCAADRGRGGYNVYTYWGQGTLVAVSS VL: EIVMTQSPGTLSLSPGERATLSCRASQTISNTYVAWYQQKPGQAPRLLIYGASSRATGIPDRFSGSGSGTDFTLTIRRLEPEDFAVYYCQQNGQSPWTFGQGTNVEIK | ≤ 2 | ≤ 2 | 1.2 | 3.5 |  |  |  |  |  |  |  |  |  |  |  |  |  |  |
| 10P3 (antibody, V domains shown, human IgG) VH: EVQLVESGGGLVRPGGSLRLSCAASGFTFHNYRMNWVRQAPGKGLEWVANIKQDGSEKSYVDSVRGRFTTSRDNSKNSLYLQINSLRAEDTAVYYCARGEGYTYGVVYSYSAMDVWGQGTTVIVSS VL: SYELTQPPSVSVSPGQTARITCSGNVLPNQYASWYQQKPGQAPVLVIYKDTERPSGIPGRFSGSSSGTTVTLTISGVQAEDEADYYCQSADSSGADYVFGTGTKVTVL |  |  |  |  |  | 0 | 0 | 0 | < 0.001 | > 2 | 0 | 0.0025 | > 10 |  | 0 | 0 | 0 |  |
| 3G16 (antibody, V domains shown, human IgG; also called 3G16-biotin) VH: QSALTQPASVSGSPGESITISCTGTISDVGAYNSVSWYQQHSGTAPELIIYDVTNRPAGVSSRFSGSKSGNTASLTISWLQSEDEAEYYCSSYTTSDTYVFGSGTQVTVL V domain: RAQLVQSAAEMKNPGASVKVSCEASGYTFTGYYVHWMRQAPGQGLEWMGWINPMTGATKSPQKFQGRVTMTRDTSTTATHIELTRLRSDDSAVFFCARGGPTSTRITGKRHFDLWGRGTLITVAS | ≤ 2 | ≤ 2 | 0.3 | 1 |  |  |  |  |  |  | 0 |  |  |  | 0 | 0 |  |  |
| 8L13 (antibody, V domains shown, human IgG) VH: QVQLLESGGGVVQPGRSLRLSCAASGFTFSNYGMHWVRQAPGKGLEWVAVIWNDGSKKYYAESVKGRFTISRDNSKNTVYLQMNSLRAEDTAVYYCARDEGVQMVFAMPDYGMDVWGQGTTVTVSS VL: SYELTQPPSVSVSPGQTASITCSGDKLGDKFACWYQQRPGQSPILVIYQDSKRPSGIPERFSGSNSGNTATLTIRGTQAMDEADYYCQAWDSSTAHYVFGTGTKVTVL |  |  |  |  |  |  |  |  | < 0.01 | > 2 |  | 0.001 | > 10 |  |  |  | 100 | 100 |
